In the supplement of paper PMC9112550, “Optimization of the antimicrobial peptide Bac7 by deep mutational scanning” (BMC Biology, 2022):

system: Escherichia coli TOP10; experiment: shrunken log2 fold change of peptide-encoding DNA abundance (4.5 h post-induction vs induction); higher = less antimicrobial activity (less host growth inhibition); conditions: time post-induction: 4.5 h; library: site-saturation at positions 5, 18, 19, 20
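Note: peptides expressed intracellularly from a pBAD plasmid library in pooled LB shake-flask culture, induced with 0.3% L-arabinose, DNA abundance read by NGS, three biological replicates, DESeq2 with apeglm shrinkage.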

Going from RRIRCRPPRLPRPRPRPDFQPRP to RRIRGRPPRLPRPRPRPVYKPRP, the “shrunken log2 fold change” value rises from -0.294 to 0.0688.

RRIRPRPPRLPRPRPRPEAFPRP and RRIRFRPPRLPRPRPRPHGFPRP are within 0.2 log units of each other in “shrunken log2 fold change” value: -0.0543 for the first, -0.105 for the second.

Compared with RRIRVRPPRLPRPRPRPKPPPRP, RRIRARPPRLPRPRPRPWPNPRP is lower in “shrunken log2 fold change” value: 0.318 for the first, 0.111 for the second.

Going from RRIRFRPPRLPRPRPRPYVMPRP to RRIRSRPPRLPRPRPRPEFRPRP, the “shrunken log2 fold change” value rises from -0.651 to 0.15.

RRIRARPPRLPRPRPRPWISPRP and RRIRHRPPRLPRPRPRPVPGPRP are within 0.2 log units of each other in “shrunken log2 fold change” value: -0.333 for the first, -0.163 for the second.

Going from RRIRFRPPRLPRPRPRPSFVPRP to RRIRFRPPRLPRPRPRPDILPRP, the “shrunken log2 fold change” value rises from -0.828 to -0.119.

Compared with RRIRGRPPRLPRPRPRPCDAPRP, RRIRSRPPRLPRPRPRPWRKPRP is lower in “shrunken log2 fold change” value: 0.473 for the first, 0.0156 for the second.

Going from RRIRGRPPRLPRPRPRPQCKPRP to RRIRPRPPRLPRPRPRPTDQPRP, the “shrunken log2 fold change” value rises from 0.165 to 0.399.

Going from RRIRTRPPRLPRPRPRPYFDPRP to RRIRWRPPRLPRPRPRPLWPPRP, the “shrunken log2 fold change” value rises from -0.738 to 0.275.

Compared with RRIRLRPPRLPRPRPRPADHPRP, RRIRNRPPRLPRPRPRPDFFPRP is higher in “shrunken log2 fold change” value: -0.53 for the first, -0.138 for the second.

Going from RRIRRRPPRLPRPRPRPTWTPRP to RRIRTRPPRLPRPRPRPHTWPRP, the “shrunken log2 fold change” value falls from 0.464 to -0.281.

RRIRHRPPRLPRPRPRPWHRPRP and RRIRPRPPRLPRPRPRPDELPRP are within 0.2 log units of each other in “shrunken log2 fold change” value: -0.119 for the first, -0.0607 for the second.

Going from RRIRGRPPRLPRPRPRPTKAPRP to RRIRVRPPRLPRPRPRPYYAPRP, the “shrunken log2 fold change” value falls from 1.03 to -0.915.

Compared with RRIRRRPPRLPRPRPRPMCAPRP, RRIRVRPPRLPRPRPRPQEHPRP is lower in “shrunken log2 fold change” value: 0.193 for the first, -0.251 for the second.

Compared with RRIRYRPPRLPRPRPRPIHIPRP, RRIRGRPPRLPRPRPRPEGQPRP is higher in “shrunken log2 fold change” value: -0.0433 for the first, 1.13 for the second.

Going from RRIRCRPPRLPRPRPRPCQLPRP to RRIRVRPPRLPRPRPRPYNYPRP, the “shrunken log2 fold change” value falls from -0.171 to -0.845.

RRIRVRPPRLPRPRPRPKGMPRP and RRIRHRPPRLPRPRPRPRWTPRP are within 0.2 log units of each other in “shrunken log2 fold change” value: 0.109 for the first, 0.0902 for the second.

Compared with RRIRDRPPRLPRPRPRPKNIPRP, RRIRKRPPRLPRPRPRPWTSPRP is higher in “shrunken log2 fold change” value: -0.465 for the first, -0.113 for the second.

RRIRVRPPRLPRPRPRPTIMPRP and RRIRSRPPRLPRPRPRPMMQPRP are within 0.2 log units of each other in “shrunken log2 fold change” value: -0.411 for the first, -0.241 for the second.

RRIRCRPPRLPRPRPRPPKIPRP and RRIRMRPPRLPRPRPRPAWQPRP are within 0.2 log units of each other in “shrunken log2 fold change” value: 0.277 for the first, 0.197 for the second.

Compared with RRIRNRPPRLPRPRPRPCWNPRP, RRIRLRPPRLPRPRPRPVELPRP is higher in “shrunken log2 fold change” value: -0.429 for the first, 0.0718 for the second.

RRIRRRPPRLPRPRPRPCLGPRP and RRIRVRPPRLPRPRPRPKEYPRP are within 0.2 log units of each other in “shrunken log2 fold change” value: -0.0846 for the first, -0.282 for the second.

First: RRIRCRPPRLPRPRPRPKMSPRP
Second: RRIRQRPPRLPRPRPRPRRTPRP
The “shrunken log2 fold change” value of the first is lower: 0.157 for the first, 0.655 for the second.

First: RRIRARPPRLPRPRPRPYIKPRP
Second: RRIRCRPPRLPRPRPRPLQVPRP
The “shrunken log2 fold change” value of the first is lower: -1.17 for the first, -0.481 for the second.

RRIRHRPPRLPRPRPRPEMHPRP and RRIRHRPPRLPRPRPRPVWIPRP are within 0.2 log units of each other in “shrunken log2 fold change” value: 0.0592 for the first, -0.0159 for the second.

Compared with RRIRQRPPRLPRPRPRPYASPRP, RRIRFRPPRLPRPRPRPQKMPRP is lower in “shrunken log2 fold change” value: -0.00547 for the first, -0.221 for the second.

RRIRDRPPRLPRPRPRPEKQPRP and RRIRVRPPRLPRPRPRPKLCPRP are within 0.2 log units of each other in “shrunken log2 fold change” value: 0.0247 for the first, -0.0766 for the second.

RRIRGRPPRLPRPRPRPDYTPRP and RRIRDRPPRLPRPRPRPVEDPRP are within 0.2 log units of each other in “shrunken log2 fold change” value: 0.343 for the first, 0.429 for the second.

Compared with RRIRYRPPRLPRPRPRPENNPRP, RRIRLRPPRLPRPRPRPRMGPRP is higher in “shrunken log2 fold change” value: -0.572 for the first, 0.135 for the second.

RRIRVRPPRLPRPRPRPADEPRP and RRIRKRPPRLPRPRPRPFYGPRP are within 0.2 log units of each other in “shrunken log2 fold change” value: -0.0284 for the first, -0.0306 for the second.

RRIRERPPRLPRPRPRPHCRPRP and RRIRERPPRLPRPRPRPQGNPRP are within 0.2 log units of each other in “shrunken log2 fold change” value: -0.168 for the first, -0.166 for the second.

First: RRIRSRPPRLPRPRPRPVQVPRP
Second: RRIRERPPRLPRPRPRPYLPPRP
The “shrunken log2 fold change” value of the first is higher: 0.159 for the first, -0.392 for the second.

Compared with RRIRHRPPRLPRPRPRPALLPRP, RRIRLRPPRLPRPRPRPPFKPRP is lower in “shrunken log2 fold change” value: 0.284 for the first, 0.0605 for the second.

RRIRDRPPRLPRPRPRPDSVPRP and RRIRFRPPRLPRPRPRPSQDPRP are within 0.2 log units of each other in “shrunken log2 fold change” value: -0.0148 for the first, 0.0128 for the second.

RRIRWRPPRLPRPRPRPQTWPRP and RRIRMRPPRLPRPRPRPDTEPRP are within 0.2 log units of each other in “shrunken log2 fold change” value: 0.223 for the first, 0.33 for the second.

Going from RRIRTRPPRLPRPRPRPIMTPRP to RRIRHRPPRLPRPRPRPTQNPRP, the “shrunken log2 fold change” value rises from -0.0418 to 0.666.

RRIRARPPRLPRPRPRPQDYPRP and RRIRERPPRLPRPRPRPGQGPRP are within 0.2 log units of each other in “shrunken log2 fold change” value: -0.159 for the first, -0.132 for the second.

RRIRPRPPRLPRPRPRPFAHPRP and RRIRTRPPRLPRPRPRPYHYPRP are within 0.2 log units of each other in “shrunken log2 fold change” value: -0.124 for the first, -0.185 for the second.

RRIRHRPPRLPRPRPRPMVGPRP and RRIRIRPPRLPRPRPRPCWFPRP are within 0.2 log units of each other in “shrunken log2 fold change” value: -0.0276 for the first, -0.165 for the second.

Compared with RRIRIRPPRLPRPRPRPENAPRP, RRIRMRPPRLPRPRPRPWRGPRP is higher in “shrunken log2 fold change” value: -0.0916 for the first, 0.497 for the second.

RRIRIRPPRLPRPRPRPSRKPRP and RRIRKRPPRLPRPRPRPKPCPRP are within 0.2 log units of each other in “shrunken log2 fold change” value: -0.148 for the first, 0.0204 for the second.

RRIRTRPPRLPRPRPRPCGDPRP and RRIRHRPPRLPRPRPRPLCWPRP are within 0.2 log units of each other in “shrunken log2 fold change” value: 0.176 for the first, -0.0222 for the second.

First: RRIRNRPPRLPRPRPRPNYEPRP
Second: RRIRHRPPRLPRPRPRPESCPRP
The “shrunken log2 fold change” value of the first is lower: -0.21 for the first, 0.0512 for the second.

First: RRIRIRPPRLPRPRPRPFTTPRP
Second: RRIRSRPPRLPRPRPRPDGWPRP
The “shrunken log2 fold change” value of the first is lower: -0.509 for the first, 0.278 for the second.

Compared with RRIRMRPPRLPRPRPRPAGMPRP, RRIRLRPPRLPRPRPRPVRNPRP is lower in “shrunken log2 fold change” value: 0.655 for the first, 0.0234 for the second.

RRIRPRPPRLPRPRPRPNTWPRP and RRIRKRPPRLPRPRPRPVVCPRP are within 0.2 log units of each other in “shrunken log2 fold change” value: 0.272 for the first, 0.126 for the second.

RRIRTRPPRLPRPRPRPAGQPRP and RRIRKRPPRLPRPRPRPNFCPRP are within 0.2 log units of each other in “shrunken log2 fold change” value: -0.109 for the first, -0.0549 for the second.

RRIRSRPPRLPRPRPRPHDTPRP and RRIRYRPPRLPRPRPRPGSFPRP are within 0.2 log units of each other in “shrunken log2 fold change” value: -0.156 for the first, -0.0331 for the second.

RRIRMRPPRLPRPRPRPMLYPRP and RRIRIRPPRLPRPRPRPQWEPRP are within 0.2 log units of each other in “shrunken log2 fold change” value: 0.0885 for the first, -0.0938 for the second.

Compared with RRIRIRPPRLPRPRPRPLCHPRP, RRIRVRPPRLPRPRPRPTYAPRP is higher in “shrunken log2 fold change” value: -0.626 for the first, 0.141 for the second.

RRIRYRPPRLPRPRPRPISAPRP and RRIRQRPPRLPRPRPRPYCMPRP are within 0.2 log units of each other in “shrunken log2 fold change” value: -0.373 for the first, -0.302 for the second.

First: RRIRKRPPRLPRPRPRPDHFPRP
Second: RRIRNRPPRLPRPRPRPFALPRP
The “shrunken log2 fold change” value of the first is lower: 0.0027 for the first, 0.814 for the second.

RRIRRRPPRLPRPRPRPPICPRP and RRIRNRPPRLPRPRPRPPHEPRP are within 0.2 log units of each other in “shrunken log2 fold change” value: 0.152 for the first, 0.256 for the second.

RRIRIRPPRLPRPRPRPKTTPRP and RRIRPRPPRLPRPRPRPFDYPRP are within 0.2 log units of each other in “shrunken log2 fold change” value: -0.301 for the first, -0.391 for the second.

In the case of RRIRIRPPRLPRPRPRPSIIPRP, the “shrunken log2 fold change” value is reported as -0.866.
